Test results reported in patent US20250115677A1, “Anti-CEA Antibody Drug Conjugates and Methods of Use” (BeiGene Switzerland GmbH, priority 2022, published 2025).

Assays:
[1] = molecular target: T1, human CEA on cells (MKN45, LOVO, NCI-H2122, LS174T, CT26/CEA) (human, UniProt P06731 35-685); experiment: cell-based or functional assay
T1 sequence: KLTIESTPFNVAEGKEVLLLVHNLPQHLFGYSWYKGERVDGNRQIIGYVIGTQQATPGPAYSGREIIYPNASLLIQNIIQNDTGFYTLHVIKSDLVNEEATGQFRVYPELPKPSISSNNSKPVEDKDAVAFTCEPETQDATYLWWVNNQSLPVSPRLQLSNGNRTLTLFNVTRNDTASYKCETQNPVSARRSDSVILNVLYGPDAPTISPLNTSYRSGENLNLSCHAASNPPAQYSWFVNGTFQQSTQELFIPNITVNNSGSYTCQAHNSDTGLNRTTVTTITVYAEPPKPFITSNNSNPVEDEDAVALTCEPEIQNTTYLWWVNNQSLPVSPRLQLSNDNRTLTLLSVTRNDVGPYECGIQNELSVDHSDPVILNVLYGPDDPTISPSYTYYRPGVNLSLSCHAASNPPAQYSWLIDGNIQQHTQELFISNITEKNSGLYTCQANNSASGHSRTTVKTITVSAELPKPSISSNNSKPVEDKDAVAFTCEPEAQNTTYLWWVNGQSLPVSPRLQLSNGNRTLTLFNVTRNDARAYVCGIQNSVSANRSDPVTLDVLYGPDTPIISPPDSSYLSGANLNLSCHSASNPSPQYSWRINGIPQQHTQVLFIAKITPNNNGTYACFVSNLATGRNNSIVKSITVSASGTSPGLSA

[2] = molecular target: T1, human CEA on cells (MKN45, LOVO, …); experiment: cell-based or functional assay; remark: listed apart in the source
[3] = molecular target: T1, human CEA on cells (MKN45, LOVO, …); experiment: cell-based or functional assay; remark: listed apart in the source
CHIM = molecular target: T2, CHIM (Homo sapiens, UniProt P06731, A174T/A211G/A239V/A261S/A267P/C12H/D173N/E253A/E283V/F203L/F272R/F277P/F63I/H123Q/H61N/H9C/I100T/I112V/I113T/I13V/I230T/I80V/INS244IISP/K155N/K214E/L18V/L245P/L62R/N182G/N204S/N246D/N288K/P266S/P287A/Q16K/Q78L/R139H/R17E/R198M/R224N/R250L/R77S/S228P/S280H/T171V/T206K/T210A/T217I/T247S/T276I/V221A/V273I/V291P/V55A/W11L); experiment: SPR affinity comparison of affinity matured humanized BGA7592 variants on CHIM; format: binding; details: for Ka / Rmax: Table 11, SPR to CHIM
T2 construct: CEACAM6 N-terminal part (fusion partner); 6xHis (C); made in house; host or cells: HEK293-based mammalian cell expression system
T2 sequence (P06731 with tags, fused parts or gaps H9C/W11L/C12H/I13V/Q16K/R17E/L18V/V55A/H61N/L62R/F63I/R77S/Q78L/I80V/I100T/I112V/I113T/H123Q/R139H/K155N/T171V/D173N/A174T/N182G/R198M/F203L/N204S/T206K/T210A/A211G/K214E/T217I/V221A/R224N/S228P/I230T/A239V/INS244IISP/L245P/N246D/T247S/R250L/E253A/A261S/P266S/A267P/F272R/V273I/T276I/F277P/S280H/E283V/P287A/N288K/V291P): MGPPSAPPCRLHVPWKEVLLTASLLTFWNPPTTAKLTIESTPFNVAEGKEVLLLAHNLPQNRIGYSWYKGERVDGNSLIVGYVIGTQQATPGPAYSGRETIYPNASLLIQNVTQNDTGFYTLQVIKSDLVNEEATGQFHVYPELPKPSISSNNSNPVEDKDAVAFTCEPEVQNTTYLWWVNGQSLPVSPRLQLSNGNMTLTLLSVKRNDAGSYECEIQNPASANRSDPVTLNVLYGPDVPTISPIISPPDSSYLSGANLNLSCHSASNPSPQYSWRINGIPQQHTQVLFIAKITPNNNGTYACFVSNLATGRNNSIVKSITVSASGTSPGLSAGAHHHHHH

[4] = molecular target: T3, chimeric construct (CHIM) (human); experiment: SPR; binding to CHIM
T3 construct: CEACAM6 AA 1-273 joined to the membrane-peripheral region containing domain B3 of CEA (AA 596-687), C-terminal 6xHis; also called chimeric CEA
T3 chain: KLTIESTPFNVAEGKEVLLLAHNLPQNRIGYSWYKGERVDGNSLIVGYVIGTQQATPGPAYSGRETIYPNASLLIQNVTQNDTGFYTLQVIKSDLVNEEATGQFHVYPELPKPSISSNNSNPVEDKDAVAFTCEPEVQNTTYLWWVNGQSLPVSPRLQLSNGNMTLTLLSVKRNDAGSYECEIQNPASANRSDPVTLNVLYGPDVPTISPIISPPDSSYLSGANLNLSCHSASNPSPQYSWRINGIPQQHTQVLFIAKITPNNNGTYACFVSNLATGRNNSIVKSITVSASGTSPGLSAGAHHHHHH

B1: BGA2490 (antibody, human IgG1, kappa, V domains shown)
VH: QVQLVQSGAEVKKPGASVKVSCKASGYIFTSYYLHWVRQAPGQGLEWIGYINPQTGKTSYAQKFQGRVTMTRDTSTSTVYMELSSLRSEDTAVYYCAREYGNYNYPLDYWGQGTLVTVSS
VL: DIQMTQSPSSLSASVGDRVTITCRASENQYGYLAWYQQKPGKVPKLLIYNYKNLVEGVPSRFSGSGSGTDFTLTISSLQPEDVATYYCQHHLGTPYTFGQGTKVEIKR
modifications: linker-payload conjugated after reduction of the antibody, DAR 8 profile (structure only as a drawing in Table 18)
**Q.** What does the source list for B1?
**A.** EC50, cell killing of MKN45 cells [1]: 0.44 nM; Emax, cell killing of MKN45 cells [1]: 89; EC50, cell killing of NCI-H2122 cells [2]: 0.19 nM; Emax, cell killing of NCI-H2122 cells [2]: 82.8; EC50, cell killing of LS174T cells [3]: 0.76 nM; Emax, cell killing of LS174T cells [3]: 70.3

B2: BGA2588 (BGA5384 conjugated with DXD) (antibody, human IgG1, kappa, V domains shown)
VH: QVQLVQSGAEVKKPGASVKVSCKASGYIFTSYYLHWVRQAPGQGLEWIGYINPQTGKTSYAQKFQGRVTMTRDTSTSTVYMELSSLRSEDTAVYYCAREYGNYNYPLDYWGQGTLVTVSS
VL: DIQMTQSPSSLSASVGDRVTITCRASENQYGYLAWYQQKPGKVPKLLIYNYKNLVEGVPSRFSGSGSGTDFTLTISSLQPEDVATYYCQHHLGTPYTFGQGTKVEIKR
modifications: DXD linker-payload conjugated after reduction of the antibody, DAR 8 profile (structure only as a drawing in Table 18)
**Q.** With B2 as the molecule, how does the “EC50, cell killing of MKN45 cells” value [1] read?
**A.** The value was 0.46 nM.

**Q.** What about the “Emax, cell killing of MKN45 cells” value [1] of the same molecule?
**A.** Its value is 85.

**Q.** And the “EC50, cell killing of NCI-H2122 cells” value [2]?
**A.** The value was 0.22 nM.

**Q.** What about the “Emax, cell killing of NCI-H2122 cells” value [2] of the same molecule?
**A.** Its value is 74.

**Q.** What about the “EC50, cell killing of LS174T cells” value [3] of the same molecule?
**A.** Its value is 1.12 nM.

**Q.** What about the “Emax, cell killing of LS174T cells” value [3] of the same molecule?
**A.** The value was 69.7.

B3: BGA8179 (antibody, human IgG1, V domains shown)
VH: QVQLVQSGAEVKKPGASVKVSCKASGYIFTSYYLHWVRQAPGQGLEWIGYINPQTGYTSYAQKFQGRVTMTRDTSTSTVYMELSSLRSEDTAVYYCAREYGNYNYPLDYWGQGTLVTVSS
VL: DIQMTQSPSSLSASVGDRVTITCRASENQYGYLAWYQQKPGKVPKLLIYNTKNLVEGVPSRFSGSGSGTDFTLTISSLQPEDVATYYCQHHLGTPYTFGQGTKVEIK
notes: Built on the BGA7592-1F-ph-M (BGA2433) template; human IgG1/kappa
**Q.** What does the source list for B3?
**A.** binding activities compared to BGA7592-1F-ph-F (BGA9521) (CHIM): improved binding activities; Ka (CHIM): 19900 M⁻¹ s⁻¹; Rmax (CHIM): 129.1 RU; Kd [4]: 14.2 nM; koff [4]: 0.000282 s⁻¹; kon [4]: 19900 M⁻¹ s⁻¹

B4: BGA2107 (antibody, human IgG1, V domains shown)
VH: QVQLVQSGAEVKKPGASVKVSCKASGYIFTSYWLHWVRQAPGQGLEWIGYINPNTGYTSYAQKFQGRVTMTRDTSTSTVYMELSSLRSEDTAVYYCAREYGNYNYPLDYWGQGTLVTVSS
VL: DIQMTQSPSSLSASVGDRVTITCRASENQYGYLAWYQQKPGKVPKLLIYNTKNLVEGVPSRFSGSGSGTDFTLTISSLQPEDVATYYCQHHLGTPYTFGQGTKVEIK
notes: as for B3
**Q.** B4 was tested. Which “binding activities compared to BGA7592-1F-ph-F (BGA9521)” value (CHIM) did it give?
**A.** The value was “improved binding activities”.

**Q.** And the Ka (CHIM)?
**A.** The Ka was 19800 M⁻¹ s⁻¹.

**Q.** What about the Rmax (CHIM) of the same molecule?
**A.** The Rmax was 71.1 RU.

**Q.** What about the Kd [4] of the same molecule?
**A.** The Kd was 19.2 nM.

**Q.** What about the koff [4] of the same molecule?
**A.** Its koff is 0.00038 s⁻¹.

**Q.** And the kon [4]?
**A.** The kon was 19800 M⁻¹ s⁻¹.

B5: BGA0089 (antibody, human IgG1, V domains shown)
VH: QVQLVQSGAEVKKPGASVKVSCKASGYIFTSYWLHWVRQAPGQGLEWIGYINPQTGYTNYAQKFQGRVTMTRDTSTSTVYMELSSLRSEDTAVYYCAREYGNYNYPLDYWGQGTLVTVSS
VL: DIQMTQSPSSLSASVGDRVTITCRASENQYGYLAWYQQKPGKVPKLLIYNTKNLVEGVPSRFSGSGSGTDFTLTISSLQPEDVATYYCQHHLGTPYTFGQGTKVEIK
notes: as for B3
**Q.** For B5, which “binding activities compared to BGA7592-1F-ph-F (BGA9521)” value (CHIM) is on record?
**A.** The value was “improved binding activities”.

**Q.** And the Ka (CHIM)?
**A.** The Ka was 18400 M⁻¹ s⁻¹.

**Q.** And the Rmax (CHIM)?
**A.** Its Rmax is 59.4 RU.

**Q.** What about the Kd [4] of the same molecule?
**A.** The Kd was 21.5 nM.

**Q.** And the koff [4]?
**A.** Its koff is 0.000394 s⁻¹.

**Q.** What about the kon [4] of the same molecule?
**A.** The kon was 18400 M⁻¹ s⁻¹.
